This passage reports percent of BMP2 absorbed results from paper doi:10.1101/2020.09.17.302455.

In this experiment the target is human plasma fibronectin (human). As to the kind of experiment: ELISA. Background: In an ELISA, binding on a coated surface is turned into a signal by an enzyme label.

B1: bone morphogenetic protein 2 (ligand)
chain: QAKHKQRKRLKSSCKRHPLYVDFSDVGWNDWIVAPPGYHAFYCHGECPFPLADHLNSTNHAIVQTLVNSVNSKIPKACCVPTELSAISMLYLDENEKVVLKNYQDMVVEGCGCR
Molecule B1 gave a percent of BMP2 absorbed of 70 to 80%.
